“And” between values parts separate entries of the source, which are not always exact repeats. Equal values may be shown once.
Experiments:
[1] = molecular target: K2-2 S424A mutant (not stated (bacteriophage of Klebsiella pneumoniae, phage not named)); assay: SEC-MALS; 100 microgram protein in 20 mM Tris pH 8.0, 100 mM NaCl, 0.02% NaN3; ENrich SEC 650 column, 0.5 ml/min
[2] = molecular target: K2-2 D515A mutant (not stated (bacteriophage of Klebsiella pneumoniae, phage not named)); assay: as above
[3] = molecular target: K2-2 with a C-terminal His-tag (K2-2^C-His) (not stated (bacteriophage of Klebsiella pneumoniae, phage not named)); assay: crystal structure; K2-2^C-His crystallised at 15°C, 0.1 M Bicine pH 9.0, 10% PEG-4000, 10% polyacrylic acid 2100 sodium salt; Se-MAD phasing; space group P6(3)
[4] = molecular target: K2-2 with a C-terminal His-tag (K2-2^C-His) (not stated (bacteriophage of Klebsiella pneumoniae, phage not named)); assay: SEC-MALS; 100 microgram protein in 20 mM Tris pH 8.0, 100 mM NaCl, 0.02% NaN3; ENrich SEC 650 column, 0.5 ml/min
[5] = molecular target: K2-2 (phage tailspike protein, K2 capsular polysaccharide depolymerase), wild type with an N-terminal His-tag (not stated (bacteriophage of Klebsiella pneumoniae, phage not named)); assay: crystal structure; N-terminally His-tagged K2-2 (wild type, and E323A soaked with 10 mM hydrolyzed K2 CPS products for 18 h); crystallised at 15°C, 0.1 M Bicine pH 9.0, 22% PEG-6000; space groups P2(1) and C2
[6] = molecular target: K2-2 (phage tailspike protein, K2 capsular polysaccharide depolymerase), wild type with an N-terminal His-tag (not stated (bacteriophage of Klebsiella pneumoniae, phage not named)); assay: SEC-MALS; 100 microgram protein in 20 mM Tris pH 8.0, 100 mM NaCl, 0.02% NaN3; ENrich SEC 650 column, 0.5 ml/min
[7] = molecular target: K2-2 E323A mutant (not stated (bacteriophage of Klebsiella pneumoniae, phage not named)); assay: crystal structure; N-terminally His-tagged K2-2 (wild type, and E323A soaked with 10 mM hydrolyzed K2 CPS products for 18 h); crystallised at 15°C, 0.1 M Bicine pH 9.0, 22% PEG-6000; space groups P2(1) and C2

Substance K2-2 S424A mutant (enzyme) has a stoichiometry N [1] of 3.

Work on K2-2 D515A mutant (enzyme) yielded a stoichiometry N [2] of 2.

In the case of “K2-2 with a C-terminal His-tag (K2-2^C-His) (enzyme)”, the stoichiometry N [3] is reported as 4 and the stoichiometry N [4] is reported as 4 and 3.

For “K2-2 (phage tailspike protein, K2 capsular polysaccharide depolymerase), wild type with an N-terminal His-tag (enzyme)”, the stoichiometry N [5] was 3 and the stoichiometry N [6] was 3.

In the case of K2-2 E323A mutant (enzyme), the stoichiometry N [7] is reported as 3.
